According to article PMC7528018, “Structure of the TFIIIC subcomplex τA provides insights into RNA polymerase III pre-initiation complex formation” (Nature Communications, 2020):
Values belong to the binder of their own block, whether it stands above or below them.

How the values were obtained:
[1] = target: T1, TFIIIC subcomplex τA (τ131, τ95, τ55) (S. cerevisiae, UniProt P33339 1-1025; P32367 1-649; Q12415 1-435); assay: co-sedimentation; 10–30% glycerol gradient without crosslinker, equimolar τA and Brf1–TBPΔN, 75 mM NaCl at mixing, 100 mM NaCl, 20 mM HEPES pH 7.5, 5 mM DTT in the gradient, 16 h at 150,000 x g; fractions on SDS–PAGE, silver stain; apparent stoichiometry; details: both partners purified
T1 construct: τ131, subunit of S. cerevisiae TFIIIC subcomplex τA; insect cell codon-optimized gene; τ95, subunit of S. cerevisiae TFIIIC subcomplex τA; τ55, subunit of S. cerevisiae TFIIIC subcomplex τA; No TEV cleavage of the his-tag is described in the purification; also called wt τA; full-length τA; source: Hi5 insect cells, subunits co-expressed by baculovirus, purified (Ni-NTA, heparin, MonoQ, Superose …)

τA Δplug (τ95Δplug) = τA Δplug (τ95Δplug) (Saccharomyces cerevisiae, UniProt P33339;P32367;Q12415 1-1025;1-521;1-435); assay: EMSA; 1-10 uM protein, 1 uM DNA; much stronger than wt, weaker than Δtail; τA EMSA: 100 mM NaCl, 20 mM HEPES pH 7.5, 5 mM DTT, 1 h on ice, 10% glycerol added before loading; TFIIIC EMSA: 1 h on ice, buffer not restated; 3-8% Tris-acetate gel in 2.5 mM Tris base, 19 mM glycine, 1 mM DTT; details: protein: recombinant; tags: N-terminal TEV-cleavable His tag on τ95; copies: 1;1;1; label: 6FAM at 3' end of non-template strand
τA Δtail (τ95Δtail) = τA Δtail (τ95Δtail) (Saccharomyces cerevisiae, UniProt P33339;P32367;Q12415 1-1025;1-592;1-435); assay: EMSA; 1-10 uM protein, 1 uM DNA; much stronger than wt and stronger than Δplug; τA EMSA: 100 mM NaCl, 20 mM HEPES pH 7.5, 5 mM DTT, 1 h on ice, 10% glycerol added before loading; TFIIIC EMSA: 1 h on ice, buffer not restated; 3-8% Tris-acetate gel in 2.5 mM Tris base, 19 mM glycine, 1 mM DTT; details: protein: recombinant; tags: N-terminal TEV-cleavable His tag on τ95; copies: 1;1;1; label: 6FAM at 3' end of non-template strand
[2] = target: holo-TFIIIC Δtail (τ95Δtail) (Saccharomyces cerevisiae, UniProt P33339;P32367;Q12415;P34111;Q06339;Q12308 1-1025;1-592;1-435;1-1160;1-672;1-588); assay: EMSA; 0.5 uM DNA; tail deletion has only a mild effect; τA EMSA: 100 mM NaCl, 20 mM HEPES pH 7.5, 5 mM DTT, 1 h on ice, 10% glycerol added before loading; TFIIIC EMSA: 1 h on ice, buffer not restated; 3-8% Tris-acetate gel in 2.5 mM Tris base, 19 mM glycine, 1 mM DTT; details: protein: recombinant; tags: N-terminal TEV-cleavable His tag on τ95; C-terminal TEV-cleavable TwinStrep on τ138; copies: 1;1;1;1;1;1; label: 6FAM at 3' end of non-template strand

Chain of τA Δplug (τ95Δplug) (P33339 whole entry, stated change not applied, chain 1 of 3): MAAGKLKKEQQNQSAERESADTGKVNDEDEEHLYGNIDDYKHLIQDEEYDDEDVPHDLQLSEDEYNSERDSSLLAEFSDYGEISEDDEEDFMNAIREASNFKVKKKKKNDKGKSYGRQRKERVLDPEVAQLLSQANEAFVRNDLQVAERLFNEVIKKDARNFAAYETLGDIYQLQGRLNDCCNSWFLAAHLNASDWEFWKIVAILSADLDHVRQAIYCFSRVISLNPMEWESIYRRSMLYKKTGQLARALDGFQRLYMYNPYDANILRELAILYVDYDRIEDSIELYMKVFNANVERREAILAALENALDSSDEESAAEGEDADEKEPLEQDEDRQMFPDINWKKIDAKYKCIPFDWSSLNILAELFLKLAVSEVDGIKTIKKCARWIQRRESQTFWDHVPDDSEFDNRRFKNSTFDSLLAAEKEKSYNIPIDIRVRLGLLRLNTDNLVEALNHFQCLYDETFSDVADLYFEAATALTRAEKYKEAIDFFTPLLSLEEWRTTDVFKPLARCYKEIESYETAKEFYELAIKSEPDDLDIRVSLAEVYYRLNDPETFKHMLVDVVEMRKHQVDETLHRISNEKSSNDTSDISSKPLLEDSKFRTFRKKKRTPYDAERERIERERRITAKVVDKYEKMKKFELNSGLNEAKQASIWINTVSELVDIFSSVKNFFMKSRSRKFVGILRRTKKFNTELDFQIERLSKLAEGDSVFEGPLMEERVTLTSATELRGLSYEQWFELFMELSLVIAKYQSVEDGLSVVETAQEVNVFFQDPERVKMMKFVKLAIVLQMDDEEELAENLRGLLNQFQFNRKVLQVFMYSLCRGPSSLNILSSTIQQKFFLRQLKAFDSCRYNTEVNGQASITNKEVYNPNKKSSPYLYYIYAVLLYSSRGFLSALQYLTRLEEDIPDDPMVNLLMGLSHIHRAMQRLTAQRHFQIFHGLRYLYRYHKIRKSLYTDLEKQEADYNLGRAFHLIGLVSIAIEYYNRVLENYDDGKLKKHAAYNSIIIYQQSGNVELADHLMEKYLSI
Chain of τA Δplug (τ95Δplug) (P32367 1-521, stated change not applied, chain 2 of 3): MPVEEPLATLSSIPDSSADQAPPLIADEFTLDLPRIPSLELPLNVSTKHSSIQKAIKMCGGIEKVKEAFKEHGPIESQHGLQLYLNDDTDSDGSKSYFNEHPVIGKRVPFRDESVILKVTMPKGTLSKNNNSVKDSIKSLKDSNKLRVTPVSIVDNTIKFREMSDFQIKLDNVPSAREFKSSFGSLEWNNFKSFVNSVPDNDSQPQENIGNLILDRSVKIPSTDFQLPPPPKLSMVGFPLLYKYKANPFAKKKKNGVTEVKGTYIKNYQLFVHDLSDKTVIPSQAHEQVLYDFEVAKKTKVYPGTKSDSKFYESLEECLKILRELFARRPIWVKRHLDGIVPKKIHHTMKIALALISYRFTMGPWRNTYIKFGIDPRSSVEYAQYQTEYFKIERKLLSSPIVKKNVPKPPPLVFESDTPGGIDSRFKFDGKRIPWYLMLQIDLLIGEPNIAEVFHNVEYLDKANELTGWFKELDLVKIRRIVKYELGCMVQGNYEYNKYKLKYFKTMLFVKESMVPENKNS
Chain of τA Δplug (τ95Δplug) (Q12415 whole entry, stated change not applied, chain 3 of 3): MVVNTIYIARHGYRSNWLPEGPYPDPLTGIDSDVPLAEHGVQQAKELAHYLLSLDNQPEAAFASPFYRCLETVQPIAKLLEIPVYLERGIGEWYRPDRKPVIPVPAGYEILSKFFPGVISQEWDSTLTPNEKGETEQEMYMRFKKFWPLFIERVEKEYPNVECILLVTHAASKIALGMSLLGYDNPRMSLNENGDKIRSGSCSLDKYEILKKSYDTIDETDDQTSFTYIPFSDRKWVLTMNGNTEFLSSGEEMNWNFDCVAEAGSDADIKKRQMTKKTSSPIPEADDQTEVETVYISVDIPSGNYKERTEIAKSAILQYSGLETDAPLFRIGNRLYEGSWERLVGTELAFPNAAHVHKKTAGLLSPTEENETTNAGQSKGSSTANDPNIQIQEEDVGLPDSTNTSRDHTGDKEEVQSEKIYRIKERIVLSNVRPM
Chain of τA Δtail (τ95Δtail) (P33339 whole entry, stated change not applied, chain 1 of 3): as the sequence (P33339 whole entry, stated change not applied, chain 1 of 3) above
Chain of τA Δtail (τ95Δtail) (P32367 1-592, stated change not applied, chain 2 of 3): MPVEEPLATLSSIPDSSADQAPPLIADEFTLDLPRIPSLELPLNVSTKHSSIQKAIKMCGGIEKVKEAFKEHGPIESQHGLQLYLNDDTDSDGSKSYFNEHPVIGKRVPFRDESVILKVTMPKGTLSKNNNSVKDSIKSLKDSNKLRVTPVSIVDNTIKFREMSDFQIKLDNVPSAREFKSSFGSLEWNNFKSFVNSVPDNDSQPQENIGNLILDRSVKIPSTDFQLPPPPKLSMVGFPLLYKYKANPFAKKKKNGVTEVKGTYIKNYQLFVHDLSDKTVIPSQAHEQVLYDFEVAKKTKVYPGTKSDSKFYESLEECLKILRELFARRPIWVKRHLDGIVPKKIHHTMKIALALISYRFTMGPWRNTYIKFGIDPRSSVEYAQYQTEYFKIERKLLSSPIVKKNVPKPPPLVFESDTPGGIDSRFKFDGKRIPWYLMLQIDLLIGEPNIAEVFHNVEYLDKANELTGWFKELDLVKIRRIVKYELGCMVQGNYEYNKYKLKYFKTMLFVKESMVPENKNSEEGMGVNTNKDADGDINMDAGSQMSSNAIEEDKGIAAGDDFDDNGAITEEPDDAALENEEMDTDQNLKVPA
Chain of τA Δtail (τ95Δtail) (Q12415 whole entry, stated change not applied, chain 3 of 3): as the sequence (Q12415 whole entry, stated change not applied, chain 3 of 3) above
T1 sequence (P33339 whole entry, chain 1 of 3): as the sequence (P33339 whole entry, stated change not applied, chain 1 of 3) above
T1 sequence (P32367 whole entry, chain 2 of 3): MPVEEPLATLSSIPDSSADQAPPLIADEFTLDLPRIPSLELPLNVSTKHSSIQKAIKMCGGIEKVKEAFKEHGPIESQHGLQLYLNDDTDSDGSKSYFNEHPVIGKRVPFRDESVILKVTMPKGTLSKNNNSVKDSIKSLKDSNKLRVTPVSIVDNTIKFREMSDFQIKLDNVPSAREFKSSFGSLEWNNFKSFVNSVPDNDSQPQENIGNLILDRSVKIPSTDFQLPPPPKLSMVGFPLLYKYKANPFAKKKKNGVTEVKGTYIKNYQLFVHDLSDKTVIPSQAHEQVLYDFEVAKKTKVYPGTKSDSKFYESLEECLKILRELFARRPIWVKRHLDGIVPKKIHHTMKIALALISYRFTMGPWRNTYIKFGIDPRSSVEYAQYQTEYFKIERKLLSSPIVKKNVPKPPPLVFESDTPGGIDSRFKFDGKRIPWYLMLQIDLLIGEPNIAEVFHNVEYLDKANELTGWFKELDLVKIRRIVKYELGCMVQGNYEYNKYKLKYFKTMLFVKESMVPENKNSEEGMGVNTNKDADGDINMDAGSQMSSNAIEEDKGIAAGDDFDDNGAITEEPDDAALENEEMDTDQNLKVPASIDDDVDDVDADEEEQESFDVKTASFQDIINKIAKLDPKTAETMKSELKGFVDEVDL
T1 sequence (Q12415 whole entry, chain 3 of 3): as the sequence (Q12415 whole entry, stated change not applied, chain 3 of 3) above

- stoichiometry N [1]: 1
B1: Brf1–TBP construct lacking the first 70 amino acids (Zn-ribbon and linker) (other)
chain: SALESREATLNNARRKLRAVSYALHIPEYITDAAFQWYKLALANNFVQGRRSQNVIASCLYVACRKEKTHHMLIDFSSRLQVSVYSIGATFLKMVKKLHITELPLADPSLFIQHFAEKLDLADKKIKVVKDAVKLAQRMSKDWMFEGRRPAGIAGACILLACRMNNLRRTHTEIVAVSHVAEETLQQRLNEFKNTKAAKLSVQKFRENDVEDGEARPPSFVKNRKKERKIKDSLDKEEMFQTSEEALNKNPILTQVLGEQELSSKEVLFYLKQFSERRARVVERIKATNGIDGENIYHEGSENETRKRKLSESGIVPTLQNIVATVTLGCRLDLKTVALHARNAEYNPKRFAAVIMRIREPKTTALIFASGKMVVTGAKSEDDSKLASRKYARIIQKIGFAAKFTDFKIQNIVGSCDVKFPIRLEGLAFSHGTFSSYEPELFPGLIYRMVKPKIVLLIFVSGKIVLTGAKQREEIYQAFEAIYPVLSEFRKMPRNLHLLPTTDTYLSKVSDDPDNLEDVDDEELNAHLLNEEASKLKERIWIGLNADFLLEQESKRLKQEADIATGNTSVKKKRTRRRNNTRSDEPTKTVDAAAAIGLMSDLQDKSGLHAALKAAEESGDFTTADSVKNMLQKASFSKKINYDAIDGLFR

B2: His_Abox (dsDNA)
DNA 1: CATCTTAGTATAGTGGTTAGT
DNA 2: ACTAACCACTATACTAAGATG
- binding result (τA Δplug (τ95Δplug)): binds
- binding result (τA Δtail (τ95Δtail)): binds

B3: His_Abox_Bbox (dsDNA)
DNA 1: CATCTTAGTATAGTGGTTAGTACACATCGTTGTGGCCGATGAAACCCTGGTTCGATTCTAGG
DNA 2: CCTAGAATCGAACCAGGGTTTCATCGGCCACAACGATGTGTACTAACCACTATACTAAGATG
- binding result [2]: binds
